Measurements taken from patent US20230203153A1 (CHILDREN S MEDICAL CENTER, published 2023).
Where “and” joins values, the source holds several entries; their conditions need not be identical. Equal entries are not always repeated. Where two headings read alike, the source gives them in different places. Bridge positions count the residues as written; N and C are the ends. Ends that are not written are not given here. * marks the point of attachment. Biotin = O=C1N[C@H]2[C@H](CS[C@H]2CCCCC(=O)*)N1

What was measured:
[1] = target: T1, 'scrambled' (neg. ctrl.) peptide (also: conjugated to BSA); assay: linear peptide ELISA, BSA-conjugated peptides (20 µM), OD 450 nm (mAb-Iso)
T1 construct: also called scrambled|BSA peptide
T1 peptide: GFEALGTAIRYPMGQR
Description: (§1) Specificity for ABCB5 of Ab100. ELISAs run against ABCB5 peptide used to make the antibody was examined. The linear peptide ELISA binding study was a comparative assessment of quantitative binding to ABCB5 linear epitope peptide (3rd extracellular loop) and corresponding peptide segments of homologous (ABCB 1, 4, 11) and orthologous (murine ABCB5) proteins—to assess specificity and/or cross-reactivity (see FIG. 2). […] A primate sequence was not tested as the epitope sequence is identical to the human epitope. A scrambled peptide was used as a negative control. All of the tested peptides are all linear peptides, synthetically created to resemble extracellular loop. The X-axis is the Ab concentration. The Y-axis is the optical density of ELISA (signal representing binding). A non-specific signal with isotype antibody has been subtracted, which is why a non-specific isotype antibody is not shown.

[2] = target: T2, ABCB4 peptide segment corresponding to the ABCB5 linear epitope peptide (human, UniProt P21439 957-972, limits assumed); assay: as above
T2 construct: domain: corresponding peptide segment (3rd extracellular loop); also called homologous control peptide
T2 peptide (looked up): RFGAYLIVNGHMRFRD
Description: as §1

[3] = target: T3, ABCB5 linear epitope peptide (3rd extracellular loop) (human); assay: as above
T3 construct: Synthetic linear peptide, used at 20 uM in the ELISA; 104; also called ABCB5 peptide; linear peptide
T3 peptide: RFGAYLIQAGRMTPEG
Description: as §1

[4] = target: T4, cyclic (biotinylated) ABCB5 peptide (human, disulfide 1-18); assay: cyclic biotinylated peptide ELISA (200 nM peptide on streptavidin plates), BSA control subtracted (FIG. 4B)
T4 construct: immobilised at 200 nM on streptavidin-precoated plates; also called cyclic ABCB5 peptide
T4 peptide: Biotin-CRFGAYLIQAGRMTPEGC

[5] = target: T4, cyclic (biotinylated) ABCB5 peptide; assay: cyclic biotinylated peptide ELISA (200 nM peptide on streptavidin plates), no Ab control subtracted (FIG. 4A)
[6] = target: T4, cyclic (biotinylated) ABCB5 peptide; assay: cyclic biotinylated peptide ELISA (200 nM peptides), curve fit
[7] = target: T4, cyclic (biotinylated) ABCB5 peptide; assay: cyclic biotinylated peptide ELISA (200 nM peptides), curve fit, OD 450 nm
[8] = target: T5, cyclic 'scrambled' (neg. ctrl.) peptide (disulfide 1-18); assay: cyclic biotinylated peptide ELISA (200 nM peptides), OD 450 nm (mAb-average Iso)
T5 construct: also called cycl. 'scrambled'
T5 peptide: Biotin-CGFEALGTAIRYPMGQRC

[9] = target: T1, 'scrambled' (neg. ctrl.) peptide; assay: linear peptide ELISA, BSA-conjugated peptides (20 µM), OD 450 nm (mAb-Iso (InVivoPlus+))
[10] = target: T6, ABCB1 peptide segment corresponding to the ABCB5 linear epitope peptide (human, UniProt P08183 958-973, limits assumed); assay: as above
T6 construct: domain: corresponding peptide segment (3rd extracellular loop); also called homologous control peptide
T6 peptide (looked up): RFGAYLVAHKLMSFED

[11] = target: T7, ABCB11 peptide segment corresponding to the ABCB5 linear epitope peptide (human, UniProt O95342 1001-1016, limits assumed); assay: as above
T7 construct: domain: corresponding peptide segment (3rd extracellular loop); also called homologous control peptide
T7 peptide (looked up): RYGGYLISNEGLHFSY

[12] = target: T3, ABCB5 linear epitope peptide (3rd …); assay: as above
[13] = target: T4, cyclic (biotinylated) ABCB5 peptide; assay: cyclic biotinylated peptide ELISA (200 nM peptides), broad range of mAb concentrations, curve fit
[14] = target: T4, cyclic (biotinylated) ABCB5 peptide; assay: cyclic biotinylated peptide ELISA (200 nM peptides), broad range of mAb concentrations, curve fit, OD 450 nm
[15] = target: T4, cyclic (biotinylated) ABCB5 peptide; assay: cyclic biotinylated peptide ELISA (200 nM peptides), broad range of mAb concentrations, OD 450 nm (mAb-average Iso)
[16] = target: T1, 'scrambled' (neg. ctrl.) peptide; assay: linear peptide ELISA, BSA-conjugated peptides (20 µM), OD 450 nm (mAb-Iso (InVivoPlus+))
[17] = target: T6, ABCB1 peptide segment corresponding to …; assay: as above
[18] = target: T7, ABCB11 peptide segment corresponding to …; assay: as above
[19] = target: T3, ABCB5 linear epitope peptide (3rd …); assay: as above

Binder	binding result [1]	binding result [2]	binding result [3]	Kd [4]	Kd [5]	Kd [6]	Bmax [7]	binding result [8]	binding result [9]	binding result [10]	binding result [11]	binding result [12]	Kd [13]	Bmax [14]	EC50 (read off the curve) [15]	binding result [16]	binding result [17]	binding result [18]	binding result [19]
ABCB5-Ab100 (antibody, human IgG1, kappa, V domains shown) VH: EVQLVESGGGLVQPGGSLRLSCAASGFTFSSYSMNWVRQAPGKGLEWVSYISSSSSTIYYADSVKGRFTISRDNAKNSLYLQMNSLRDEDTAVYYCASNYQYGDYGGYWGRGTLVTVSS VL: AIQLTQSPSSLTGSVGDRVTITCQASHDISNFLNWYQQKPGQAPKLLIYDAYNLQTGVPSRFSGTGSGTHFTLTINSLQPEDVGTYFCQQYDYFLSITFGQGTRLEIKR	no binding (tested: 50 µg/mL)	no binding (tested: 50 µg/mL)	binds	6.16 µg/mL and 41.3 nM	4.93 µg/mL and 33.1 nM														
ABCB5-Ab101 (antibody, human IgG1, kappa, V domains shown, Fully human monoclonal IgG1 kappa) VH: QVQLVQSGAEVKKPGASVKVSCKASGYTFTSYYMHWVRQAPGQGLEWMGIINPSGGSTSYAQKFQGRVTMTRDTSTSTVYMELSSLRSEDTAVYYCARDQAVTGTAYYYYYGMDVWGQGTTVTVSS VL: EIVLTQSPGTLSLSPGERATLSCRASQSVNSNYLAWYQQKPGQAPRLLIYGTSSRATGIPDSFSGSGSGTDFTLTISRLEPEDFAVYYCQQFGSSPLTFGGGTKVEIKR						0.0283 µg/mL and 0.19 nM	3.33	no binding (tested: 1 µg/ml)	no binding (tested: 50 µg/ml)	no binding (tested: 50 µg/ml)	no binding (tested: 50 µg/ml)	binds	0.039 µg/mL and 0.261 nM	3.83	~0.04 µg/mL				
ABCB5-Ab43 (antibody, V domains shown) VH: QVQLVQSGAEVKKPGASVKVSCKASGYTFTSYYMHWVRQSPGQGLEWMGIINPSGGSTSYAQKFQGRVTMTRDTSTSTVYMELSSLRSEDTAVYYCARDQAVTGTAYYYYYGMDVWGQGTTVTVSS VL: EIVLTQSPGTLSLSPGERATLSCRASQSVNSKYLAWYQQKPGQAPRLLIYGTSSRATGIPDSFSGSGSGTDFTLTISRLEPEDFAVYYCQQFGSSPLTFGGGTKVEIK						0.0204 µg/mL and 0.137 nM	3.24	no binding (tested: 1 µg/ml)					0.0345 µg/mL and 0.231 nM	3.77	~0.04 µg/mL	no binding (tested: 50 µg/ml)	no binding (tested: 50 µg/ml)	no binding (tested: 50 µg/ml)	binds
ABCB5-Ab42 (antibody, V domains shown, detection was with an anti-human secondary antibody) VH: QVQLVQSGAEVKKPGASVKVSCKTSGYTFTSYYMHWVRQSPGQGLEWMGIINPSGGSTSYAQKFQGRVTMTRDTSTSTVYMELSSLRSEDTAVYYCARDQAVTGTAYYYYYGMDVWGQGTTVTVSS VL: EIVLTQSPGTLSLSPGERATLSCRASLSVNSNYLAWYQQKPGQAPRLLIYGTSSRATGIPDSFSGSGSGTDFTLTISRLEPEDFAVYYCQQFGSSPLTFGGGTKVEIK						0.0222 µg/mL and 0.149 nM	3.17	no binding (tested: 1 µg/ml)					0.0471 µg/mL and 0.316 nM	4.09	~0.04 µg/mL	no binding (tested: 50 µg/ml)	no binding (tested: 50 µg/ml)	no binding (tested: 50 µg/ml)	binds
ABCB5-Ab44 (antibody, V domains shown, also called A44; F01) VH: QVQLVQSGAEVKKPGASVKVSCKASGYTFTSYYMHWVRQAPGQGLEWMGIINPSGGSTSYAQKFKGRVTMTRDTSTSTVYMELSSLRSEDTAVYYCARDQAVTGTAYYYYYGMDVWGQGTTVTVSS VL: EIVLTQSPGTLSLSPGERATLSCRASQSVNSNYLAWYQQKPGQAPRLLIYGTSSRATGIPDSFSGSGSGTDFTLTISRLEPEDFAVYYCQQFGSSPLTFGGGTKVEIK						0.00917 µg/mL and 0.0615 nM	3.23	no binding (tested: 1 µg/ml)					0.0335 µg/mL and 0.225 nM	3.99	~0.04 µg/mL	no binding (tested: 50 µg/ml)	no binding (tested: 50 µg/ml)	no binding (tested: 50 µg/ml)	binds
ABCB5-Ab45 (antibody, V domains shown) VH: QVQLVQSGAEVKKPGASVKVSCKASGYTFTNYYMHWVRQAPGQGPEWMGIINPSGGSTSYAQKFQGRVTMTRDTSTSTVYMELSSLRSEDTAVYYCARDLAVTGTAYYYYYGMDVWGQGTTVTVSS VL: EFVLTQSPGTLSLSPGERATLSCRASQSVNSNYLAWYQQKPGQAPRLLIYGTSSRATGIPDSFSGSGSGTDFTLTISRLEPEDFAVYYCQQFGSSPLTFGGGTKVEIK						0.00456 µg/mL and 0.0306 nM	3.2	no binding (tested: 1 µg/ml)					0.0205 µg/mL and 0.138 nM	3.71	~0.02 µg/mL	no binding (tested: 50 µg/ml)	no binding (tested: 50 µg/ml)	no binding (tested: 50 µg/ml)	binds
